Measurements taken from article PMC5913336, “True equilibrium measurement of transcription factor-DNA binding affinities using automated polarization microscopy”.

Key:
Settings in all cases: protein: recombinant; tags: N-terminal GST; blunt, G:G mismatch at position 6
Bicoid DBD-GST (Bcd) [1] = target: T1, Bicoid DBD-GST (Bcd) (UniProt P09081 83-170); experiment: competitive fluorescence anisotropy (HiP-FA); mean of replicates 63.883, 64.716; HiP-FA: 33 mM phosphate pH 7.0, 90 mM NaCl, 0.01% Tween 20, 0.1 mM DTT, 0.5% agarose; conventional titration and EMSA: 20 mM Tris-acetate pH 7.0, 50 nM (sic) NaCl, 0.01% Tween-20, 0.1 mM DTT
T1 sequence: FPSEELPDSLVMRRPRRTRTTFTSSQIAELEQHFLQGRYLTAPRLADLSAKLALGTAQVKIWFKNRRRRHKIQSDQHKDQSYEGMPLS

Bicoid DBD-GST (Bcd) [2] = target: T1, Bicoid DBD-GST (Bcd); experiment: competitive fluorescence anisotropy (HiP-FA); mean of replicates 133.924, 123.07; HiP-FA: 33 mM phosphate pH 7.0, 90 mM NaCl, 0.01% Tween 20, 0.1 mM DTT, 0.5% agarose; conventional titration and EMSA: 20 mM Tris-acetate pH 7.0, 50 nM (sic) NaCl, 0.01% Tween-20, 0.1 mM DTT
Bicoid DBD-GST (Bcd) [3] = target: T1, Bicoid DBD-GST (Bcd); experiment: competitive fluorescence anisotropy (HiP-FA); mean of replicates 2.804, 2.596; HiP-FA: 33 mM phosphate pH 7.0, 90 mM NaCl, 0.01% Tween 20, 0.1 mM DTT, 0.5% agarose; conventional titration and EMSA: 20 mM Tris-acetate pH 7.0, 50 nM (sic) NaCl, 0.01% Tween-20, 0.1 mM DTT
Bicoid DBD-GST (Bcd) [4] = target: T1, Bicoid DBD-GST (Bcd); experiment: competitive fluorescence anisotropy (HiP-FA); mean of replicates 14.726, 13.4865; HiP-FA: 33 mM phosphate pH 7.0, 90 mM NaCl, 0.01% Tween 20, 0.1 mM DTT, 0.5% agarose; conventional titration and EMSA: 20 mM Tris-acetate pH 7.0, 50 nM (sic) NaCl, 0.01% Tween-20, 0.1 mM DTT
Bicoid DBD-GST (Bcd) [5] = target: T1, Bicoid DBD-GST (Bcd); experiment: competitive fluorescence anisotropy (HiP-FA); mean of replicates 49.501, 48.184; HiP-FA: 33 mM phosphate pH 7.0, 90 mM NaCl, 0.01% Tween 20, 0.1 mM DTT, 0.5% agarose; conventional titration and EMSA: 20 mM Tris-acetate pH 7.0, 50 nM (sic) NaCl, 0.01% Tween-20, 0.1 mM DTT
Bicoid DBD-GST (Bcd) [6] = target: T1, Bicoid DBD-GST (Bcd); experiment: competitive fluorescence anisotropy (HiP-FA); mean of replicates 28.134, 26.319; HiP-FA: 33 mM phosphate pH 7.0, 90 mM NaCl, 0.01% Tween 20, 0.1 mM DTT, 0.5% agarose; conventional titration and EMSA: 20 mM Tris-acetate pH 7.0, 50 nM (sic) NaCl, 0.01% Tween-20, 0.1 mM DTT
Bicoid DBD-GST (Bcd) [7] = target: T1, Bicoid DBD-GST (Bcd); experiment: competitive fluorescence anisotropy (HiP-FA); mean of replicates 12.922, 12.5195; HiP-FA: 33 mM phosphate pH 7.0, 90 mM NaCl, 0.01% Tween 20, 0.1 mM DTT, 0.5% agarose; conventional titration and EMSA: 20 mM Tris-acetate pH 7.0, 50 nM (sic) NaCl, 0.01% Tween-20, 0.1 mM DTT
Bicoid DBD-GST (Bcd) [8] = target: T1, Bicoid DBD-GST (Bcd); experiment: competitive fluorescence anisotropy (HiP-FA); mean of replicates 3.661, 3.6795; HiP-FA: 33 mM phosphate pH 7.0, 90 mM NaCl, 0.01% Tween 20, 0.1 mM DTT, 0.5% agarose; conventional titration and EMSA: 20 mM Tris-acetate pH 7.0, 50 nM (sic) NaCl, 0.01% Tween-20, 0.1 mM DTT
Bicoid DBD-GST (Bcd) [9] = target: T1, Bicoid DBD-GST (Bcd); experiment: competitive fluorescence anisotropy (HiP-FA); mean of replicates 92.598, 91.655; HiP-FA: 33 mM phosphate pH 7.0, 90 mM NaCl, 0.01% Tween 20, 0.1 mM DTT, 0.5% agarose; conventional titration and EMSA: 20 mM Tris-acetate pH 7.0, 50 nM (sic) NaCl, 0.01% Tween-20, 0.1 mM DTT
Bicoid DBD-GST (Bcd) [10] = target: T1, Bicoid DBD-GST (Bcd); experiment: competitive fluorescence anisotropy (HiP-FA); mean of replicates 94.126, 94.115; HiP-FA: 33 mM phosphate pH 7.0, 90 mM NaCl, 0.01% Tween 20, 0.1 mM DTT, 0.5% agarose; conventional titration and EMSA: 20 mM Tris-acetate pH 7.0, 50 nM (sic) NaCl, 0.01% Tween-20, 0.1 mM DTT
Bicoid DBD-GST (Bcd) [11] = target: T1, Bicoid DBD-GST (Bcd); experiment: competitive fluorescence anisotropy (HiP-FA); mean of replicates 49.725, 45.8965; HiP-FA: 33 mM phosphate pH 7.0, 90 mM NaCl, 0.01% Tween 20, 0.1 mM DTT, 0.5% agarose; conventional titration and EMSA: 20 mM Tris-acetate pH 7.0, 50 nM (sic) NaCl, 0.01% Tween-20, 0.1 mM DTT
Bicoid DBD-GST (Bcd) [12] = target: T1, Bicoid DBD-GST (Bcd); experiment: competitive fluorescence anisotropy (HiP-FA); mean of replicates 29.656, 29.169; HiP-FA: 33 mM phosphate pH 7.0, 90 mM NaCl, 0.01% Tween 20, 0.1 mM DTT, 0.5% agarose; conventional titration and EMSA: 20 mM Tris-acetate pH 7.0, 50 nM (sic) NaCl, 0.01% Tween-20, 0.1 mM DTT
Bicoid DBD-GST (Bcd) [13] = target: T1, Bicoid DBD-GST (Bcd); experiment: competitive fluorescence anisotropy (HiP-FA); mean of replicates 4.834, 5.5235; HiP-FA: 33 mM phosphate pH 7.0, 90 mM NaCl, 0.01% Tween 20, 0.1 mM DTT, 0.5% agarose; conventional titration and EMSA: 20 mM Tris-acetate pH 7.0, 50 nM (sic) NaCl, 0.01% Tween-20, 0.1 mM DTT
Bicoid DBD-GST (Bcd) [14] = target: T1, Bicoid DBD-GST (Bcd); experiment: competitive fluorescence anisotropy (HiP-FA); mean of replicates 8.833, 9.124; HiP-FA: 33 mM phosphate pH 7.0, 90 mM NaCl, 0.01% Tween 20, 0.1 mM DTT, 0.5% agarose; conventional titration and EMSA: 20 mM Tris-acetate pH 7.0, 50 nM (sic) NaCl, 0.01% Tween-20, 0.1 mM DTT
Bicoid DBD-GST (Bcd) [15] = target: T1, Bicoid DBD-GST (Bcd); experiment: competitive fluorescence anisotropy (HiP-FA); mean of replicates 3.19, 4.8725; HiP-FA: 33 mM phosphate pH 7.0, 90 mM NaCl, 0.01% Tween 20, 0.1 mM DTT, 0.5% agarose; conventional titration and EMSA: 20 mM Tris-acetate pH 7.0, 50 nM (sic) NaCl, 0.01% Tween-20, 0.1 mM DTT
Bicoid DBD-GST (Bcd) [16] = target: T1, Bicoid DBD-GST (Bcd); experiment: competitive fluorescence anisotropy (HiP-FA); mean of replicates 143.671, 148.3805; HiP-FA: 33 mM phosphate pH 7.0, 90 mM NaCl, 0.01% Tween 20, 0.1 mM DTT, 0.5% agarose; conventional titration and EMSA: 20 mM Tris-acetate pH 7.0, 50 nM (sic) NaCl, 0.01% Tween-20, 0.1 mM DTT
Bicoid DBD-GST (Bcd) [17] = target: T1, Bicoid DBD-GST (Bcd); experiment: competitive fluorescence anisotropy (HiP-FA); mean of replicates 45.665, 45.961; HiP-FA: 33 mM phosphate pH 7.0, 90 mM NaCl, 0.01% Tween 20, 0.1 mM DTT, 0.5% agarose; conventional titration and EMSA: 20 mM Tris-acetate pH 7.0, 50 nM (sic) NaCl, 0.01% Tween-20, 0.1 mM DTT
Bicoid DBD-GST (Bcd) [18] = target: T1, Bicoid DBD-GST (Bcd); experiment: competitive fluorescence anisotropy (HiP-FA); mean of replicates 19.276, 18.3665; HiP-FA: 33 mM phosphate pH 7.0, 90 mM NaCl, 0.01% Tween 20, 0.1 mM DTT, 0.5% agarose; conventional titration and EMSA: 20 mM Tris-acetate pH 7.0, 50 nM (sic) NaCl, 0.01% Tween-20, 0.1 mM DTT
Bicoid DBD-GST (Bcd) [19] = target: T1, Bicoid DBD-GST (Bcd); experiment: competitive fluorescence anisotropy (HiP-FA); mean of replicates 8.014, 7.5595; HiP-FA: 33 mM phosphate pH 7.0, 90 mM NaCl, 0.01% Tween 20, 0.1 mM DTT, 0.5% agarose; conventional titration and EMSA: 20 mM Tris-acetate pH 7.0, 50 nM (sic) NaCl, 0.01% Tween-20, 0.1 mM DTT

B1: Bcd competitor 13 (A5C) (dsDNA)
DNA 1: TCGACGGTCATCCCTA
DNA 2: TAGGGATGACGGTCGA
Kd (Bicoid DBD-GST (Bcd) [1]): 64.3 nM

B2: Bcd competitor 18 (A6T) (dsDNA)
DNA 1: TCGACGGTATTCCCTA
DNA 2: TAGGGAATACGGTCGA
Kd (Bicoid DBD-GST (Bcd) [2]): 128 nM

B3: Bcd competitor 1 (C1G) (dsDNA)
DNA 1: TCGAGGGTAATCCCTA
DNA 2: TAGGGATTACGCTCGA
Kd (Bicoid DBD-GST (Bcd) [3]): 2.7 nM

B4: Bcd competitor 25 (C9G) (dsDNA)
DNA 1: TCGACGGTAATCGCTA
DNA 2: TAGCGATTACGGTCGA
Kd (Bicoid DBD-GST (Bcd) [4]): 14.1 nM

B5: Bcd competitor 21 (T7A) (dsDNA)
DNA 1: TCGACGGTAAACCCTA
DNA 2: TAGGGTTTACGGTCGA
Kd (Bicoid DBD-GST (Bcd) [5]): 48.8 nM

B6: Bcd competitor 23 (C8T) (dsDNA)
DNA 1: TCGACGGTAATTCCTA
DNA 2: TAGGAATTACGGTCGA
Kd (Bicoid DBD-GST (Bcd) [6]): 27.2 nM

B7: Bcd competitor 27 (C9A) (dsDNA)
DNA 1: TCGACGGTAATCACTA
DNA 2: TAGTGATTACGGTCGA
Kd (Bicoid DBD-GST (Bcd) [7]): 12.7 nM

B8: Bcd competitor 28 (C10G) (dsDNA)
DNA 1: TCGACGGTAATCCGTA
DNA 2: TACGGATTACGGTCGA
Kd (Bicoid DBD-GST (Bcd) [8]): 3.67 nM

B9: Bcd competitor 22 (C8G) (dsDNA)
DNA 1: TCGACGGTAATGCCTA
DNA 2: TAGGCATTACGGTCGA
Kd (Bicoid DBD-GST (Bcd) [9]): 92.1 nM

B10: Bcd competitor 19 (T7C) (dsDNA)
DNA 1: TCGACGGTAACCCCTA
DNA 2: TAGGGGTTACGGTCGA
Kd (Bicoid DBD-GST (Bcd) [10]): 94.1 nM

B11: Bcd competitor 24 (C8A) (dsDNA)
DNA 1: TCGACGGTAATACCTA
DNA 2: TAGGTATTACGGTCGA
Kd (Bicoid DBD-GST (Bcd) [11]): 47.8 nM

B12: Bcd competitor 15 (A5T) (dsDNA)
DNA 1: TCGACGGTTATCCCTA
DNA 2: TAGGGATAACGGTCGA
Kd (Bicoid DBD-GST (Bcd) [12]): 29.4 nM

B13: Bcd competitor 30 (C10A) (dsDNA)
DNA 1: TCGACGGTAATCCATA
DNA 2: TATGGATTACGGTCGA
Kd (Bicoid DBD-GST (Bcd) [13]): 5.18 nM

B14: Bcd competitor 14 (A5G) (dsDNA)
DNA 1: TCGACGGTGATCCCTA
DNA 2: TAGGGATCACGGTCGA
Kd (Bicoid DBD-GST (Bcd) [14]): 8.98 nM

B15: Bcd competitor 29 (C10T) (dsDNA)
DNA 1: TCGACGGTAATCCTTA
DNA 2: TAAGGATTACGGTCGA
Kd (Bicoid DBD-GST (Bcd) [15]): 4.03 nM

B16: Bcd competitor 16 (A6C) (dsDNA)
DNA 1: TCGACGGTACTCCCTA
DNA 2: TAGGGAGTACGGTCGA
Kd (Bicoid DBD-GST (Bcd) [16]): 146 nM

B17: Bcd competitor 17 (A6G) (dsDNA)
DNA 1: TCGACGGTAGTCCCTA
DNA 2: TAGGGACTACGGTCGA
Kd (Bicoid DBD-GST (Bcd) [17]): 45.8 nM

B18: Bcd competitor 20 (T7G) (dsDNA)
DNA 1: TCGACGGTAAGCCCTA
DNA 2: TAGGGCTTACGGTCGA
Kd (Bicoid DBD-GST (Bcd) [18]): 18.8 nM

B19: Bcd competitor 26 (C9T) (dsDNA)
DNA 1: TCGACGGTAATCTCTA
DNA 2: TAGAGATTACGGTCGA
Kd (Bicoid DBD-GST (Bcd) [19]): 7.79 nM
